B1: C68: E. coli EPSPS C-terminal fragment, residue 68 to C-terminus (protein, UniProt P0A6D3 68-427, looked up, fragment)
chain: ADRTRCEIIGNGGPLHAEGALELFLGNAGTAMRPLAAALCLGSNDIVLTGEPRMKERPIGHLVDALRLGGAKITYLEQENYPPLRLQGGFTGGNVDVDGSVSSQFLTALLMTAPLAPEDTVIRIKGDLVSKPYIDITLNLMKTFGVEIENQHYQQFVVKGGQSYQSPGTYLVEGDASSASYFLAAAAIKGGTVKVTGIGRNSMQGDIRFADVLEKMGATICWGDDYISCTRGELNAIDMDMNHIPDAAMTIATAALFAKGTTTLRNIYNWRVKETDRLFAMATELRKVGAEVEEGHDYIRITPPEKLNFAEIATYNDHRMAMCFSLVALSDTPVTILDPKCTAKTFPDYFEQLARISQAA
B2: C239: E. coli EPSPS C-terminal fragment, residue 239 to C-terminus (protein, UniProt P0A6D3 239-427, looked up, fragment)
chain: VEGDASSASYFLAAAAIKGGTVKVTGIGRNSMQGDIRFADVLEKMGATICWGDDYISCTRGELNAIDMDMNHIPDAAMTIATAALFAKGTTTLRNIYNWRVKETDRLFAMATELRKVGAEVEEGHDYIRITPPEKLNFAEIATYNDHRMAMCFSLVALSDTPVTILDPKCTAKTFPDYFEQLARISQAA
B3: C246: E. coli EPSPS C-terminal fragment, residue 246 to C-terminus (protein, UniProt P0A6D3 246-427, looked up, fragment)
chain: ASYFLAAAAIKGGTVKVTGIGRNSMQGDIRFADVLEKMGATICWGDDYISCTRGELNAIDMDMNHIPDAAMTIATAALFAKGTTTLRNIYNWRVKETDRLFAMATELRKVGAEVEEGHDYIRITPPEKLNFAEIATYNDHRMAMCFSLVALSDTPVTILDPKCTAKTFPDYFEQLARISQAA
B4: C260: E. coli EPSPS C-terminal fragment, residue 260 to C-terminus (protein, UniProt P0A6D3 260-427, looked up, fragment)
chain: VKVTGIGRNSMQGDIRFADVLEKMGATICWGDDYISCTRGELNAIDMDMNHIPDAAMTIATAALFAKGTTTLRNIYNWRVKETDRLFAMATELRKVGAEVEEGHDYIRITPPEKLNFAEIATYNDHRMAMCFSLVALSDTPVTILDPKCTAKTFPDYFEQLARISQAA
B5: C32: E. coli EPSPS C-terminal fragment, residue 32 to C-terminus (protein, UniProt P0A6D3 32-427, looked up, fragment)
chain: AALAHGKTVLTNLLDSDDVRHMLNALTALGVSYTLSADRTRCEIIGNGGPLHAEGALELFLGNAGTAMRPLAAALCLGSNDIVLTGEPRMKERPIGHLVDALRLGGAKITYLEQENYPPLRLQGGFTGGNVDVDGSVSSQFLTALLMTAPLAPEDTVIRIKGDLVSKPYIDITLNLMKTFGVEIENQHYQQFVVKGGQSYQSPGTYLVEGDASSASYFLAAAAIKGGTVKVTGIGRNSMQGDIRFADVLEKMGATICWGDDYISCTRGELNAIDMDMNHIPDAAMTIATAALFAKGTTTLRNIYNWRVKETDRLFAMATELRKVGAEVEEGHDYIRITPPEKLNFAEIATYNDHRMAMCFSLVALSDTPVTILDPKCTAKTFPDYFEQLARISQAA
B6: C241: E. coli EPSPS C-terminal fragment, residue 241 to C-terminus (protein, UniProt P0A6D3 241-427, looked up, fragment)
chain: GDASSASYFLAAAAIKGGTVKVTGIGRNSMQGDIRFADVLEKMGATICWGDDYISCTRGELNAIDMDMNHIPDAAMTIATAALFAKGTTTLRNIYNWRVKETDRLFAMATELRKVGAEVEEGHDYIRITPPEKLNFAEIATYNDHRMAMCFSLVALSDTPVTILDPKCTAKTFPDYFEQLARISQAA
B7: C299: E. coli EPSPS C-terminal fragment, residue 299 to C-terminus (protein, UniProt P0A6D3 299-427, looked up, fragment)
chain: GELNAIDMDMNHIPDAAMTIATAALFAKGTTTLRNIYNWRVKETDRLFAMATELRKVGAEVEEGHDYIRITPPEKLNFAEIATYNDHRMAMCFSLVALSDTPVTILDPKCTAKTFPDYFEQLARISQAA
B8: N371: E. coli EPSPS N-terminal fragment, N-terminus to residue 371 (protein, UniProt P0A6D3 1-371, looked up, fragment)
chain: MESLTLQPIARVDGTINLPGSKSVSNRALLLAALAHGKTVLTNLLDSDDVRHMLNALTALGVSYTLSADRTRCEIIGNGGPLHAEGALELFLGNAGTAMRPLAAALCLGSNDIVLTGEPRMKERPIGHLVDALRLGGAKITYLEQENYPPLRLQGGFTGGNVDVDGSVSSQFLTALLMTAPLAPEDTVIRIKGDLVSKPYIDITLNLMKTFGVEIENQHYQQFVVKGGQSYQSPGTYLVEGDASSASYFLAAAAIKGGTVKVTGIGRNSMQGDIRFADVLEKMGATICWGDDYISCTRGELNAIDMDMNHIPDAAMTIATAALFAKGTTTLRNIYNWRVKETDRLFAMATELRKVGAEVEEGHDYIRITPP
B9: N298: E. coli EPSPS N-terminal fragment, N-terminus to residue 298 (protein, UniProt P0A6D3 1-298, looked up, fragment)
chain: MESLTLQPIARVDGTINLPGSKSVSNRALLLAALAHGKTVLTNLLDSDDVRHMLNALTALGVSYTLSADRTRCEIIGNGGPLHAEGALELFLGNAGTAMRPLAAALCLGSNDIVLTGEPRMKERPIGHLVDALRLGGAKITYLEQENYPPLRLQGGFTGGNVDVDGSVSSQFLTALLMTAPLAPEDTVIRIKGDLVSKPYIDITLNLMKTFGVEIENQHYQQFVVKGGQSYQSPGTYLVEGDASSASYFLAAAAIKGGTVKVTGIGRNSMQGDIRFADVLEKMGATICWGDDYISCTR
B10: N67: E. coli EPSPS N-terminal fragment, N-terminus to residue 67 (protein, UniProt P0A6D3 1-67, looked up, fragment)
chain: MESLTLQPIARVDGTINLPGSKSVSNRALLLAALAHGKTVLTNLLDSDDVRHMLNALTALGVSYTLS
B11: N383: E. coli EPSPS N-terminal fragment, N-terminus to residue 383 (protein, UniProt P0A6D3 1-383, looked up, fragment)
chain: MESLTLQPIARVDGTINLPGSKSVSNRALLLAALAHGKTVLTNLLDSDDVRHMLNALTALGVSYTLSADRTRCEIIGNGGPLHAEGALELFLGNAGTAMRPLAAALCLGSNDIVLTGEPRMKERPIGHLVDALRLGGAKITYLEQENYPPLRLQGGFTGGNVDVDGSVSSQFLTALLMTAPLAPEDTVIRIKGDLVSKPYIDITLNLMKTFGVEIENQHYQQFVVKGGQSYQSPGTYLVEGDASSASYFLAAAAIKGGTVKVTGIGRNSMQGDIRFADVLEKMGATICWGDDYISCTRGELNAIDMDMNHIPDAAMTIATAALFAKGTTTLRNIYNWRVKETDRLFAMATELRKVGAEVEEGHDYIRITPPEKLNFAEIATYN
B12: N376: E. coli EPSPS N-terminal fragment, N-terminus to residue 376 (protein, UniProt P0A6D3 1-376, looked up, fragment)
chain: MESLTLQPIARVDGTINLPGSKSVSNRALLLAALAHGKTVLTNLLDSDDVRHMLNALTALGVSYTLSADRTRCEIIGNGGPLHAEGALELFLGNAGTAMRPLAAALCLGSNDIVLTGEPRMKERPIGHLVDALRLGGAKITYLEQENYPPLRLQGGFTGGNVDVDGSVSSQFLTALLMTAPLAPEDTVIRIKGDLVSKPYIDITLNLMKTFGVEIENQHYQQFVVKGGQSYQSPGTYLVEGDASSASYFLAAAAIKGGTVKVTGIGRNSMQGDIRFADVLEKMGATICWGDDYISCTRGELNAIDMDMNHIPDAAMTIATAALFAKGTTTLRNIYNWRVKETDRLFAMATELRKVGAEVEEGHDYIRITPPEKLNF
B13: N245: E. coli EPSPS N-terminal fragment, N-terminus to residue 245 (protein, UniProt P0A6D3 1-245, looked up, fragment)
chain: MESLTLQPIARVDGTINLPGSKSVSNRALLLAALAHGKTVLTNLLDSDDVRHMLNALTALGVSYTLSADRTRCEIIGNGGPLHAEGALELFLGNAGTAMRPLAAALCLGSNDIVLTGEPRMKERPIGHLVDALRLGGAKITYLEQENYPPLRLQGGFTGGNVDVDGSVSSQFLTALLMTAPLAPEDTVIRIKGDLVSKPYIDITLNLMKTFGVEIENQHYQQFVVKGGQSYQSPGTYLVEGDASS
B14: N240: E. coli EPSPS N-terminal fragment, N-terminus to residue 240 (protein, UniProt P0A6D3 1-240, looked up, fragment)
chain: MESLTLQPIARVDGTINLPGSKSVSNRALLLAALAHGKTVLTNLLDSDDVRHMLNALTALGVSYTLSADRTRCEIIGNGGPLHAEGALELFLGNAGTAMRPLAAALCLGSNDIVLTGEPRMKERPIGHLVDALRLGGAKITYLEQENYPPLRLQGGFTGGNVDVDGSVSSQFLTALLMTAPLAPEDTVIRIKGDLVSKPYIDITLNLMKTFGVEIENQHYQQFVVKGGQSYQSPGTYLVE
B15: N259: E. coli EPSPS N-terminal fragment, N-terminus to residue 259 (protein, UniProt P0A6D3 1-259, looked up, fragment)
chain: MESLTLQPIARVDGTINLPGSKSVSNRALLLAALAHGKTVLTNLLDSDDVRHMLNALTALGVSYTLSADRTRCEIIGNGGPLHAEGALELFLGNAGTAMRPLAAALCLGSNDIVLTGEPRMKERPIGHLVDALRLGGAKITYLEQENYPPLRLQGGFTGGNVDVDGSVSSQFLTALLMTAPLAPEDTVIRIKGDLVSKPYIDITLNLMKTFGVEIENQHYQQFVVKGGQSYQSPGTYLVEGDASSASYFLAAAAIKGGT

system: aroA gene-mutant E. coli strain AB2829; test: In vivo complementation: growth on solid M63 restrictive medium; format: cell-based; parameters: key: −: failed to grow; +: able to grow; conditions: C-terminal fragment alone
Text: The pKU2100 plasmid constructed as described above and corresponding pACYC1184 plasmid were introduced separately or together into the strain AB2829 deficient in E. coli aroA gene. Then, the strain was streaked on solid M63 restrictive medium and cultured overnight to determine the growth.
In order to test if EPSPS achieves fragment complementation after in vivo expression, genes encoding EPSPS N-terminal peptides were constructed into pACYC184, and genes encoding EPSPS C-terminal peptides were constructed into pBR322 (see the section Materials and Methods for the detailed construction method). Afterwards, these plasmids were introduced into aroA gene-mutant E. coli strain AB2829. EPSPS activity of the protein fragments encoded by these genes was determined by the growth of the strains on M63 restrictive medium.
The pACYC184 and pBR322 plasmids are able to be expressed in the same bacterial cell since they have replicons p15A and ColE1 respectively. In this regard, a pACYC184 plasmid was co-introduced into aroA gene-mutant E. coli strain AB2829 together with a corresponding pKU2100 plasmid, wherein the N-terminal peptide encoded by the pACYC184 plasmid and C-terminal peptide encoded by the pKU2100 plasmid are the two fragments divided at the same site from EPSPS. The resulting strains are streaked on M63 restrictive medium, and cultured at 37° C.
The pBR322 plasmids constructed in section 3.5 a and their relevant pACYC1184 plasmids constructed in section 3.5 b were introduced respectively or together into E. coli strain AB2829 deficient in aroA gene. Then the strains were streaked on solid M63 restrictive medium and cultured overnight to test the growth.

Question: Which “complementation condition, C-terminal” value does the source give for B1 here?
Answer: −

Question: For B2, which “complementation condition, C-terminal” value is on record?
Answer: −

Question: B3 was tested. Which “complementation condition, C-terminal” value did it give?
Answer: −

Question: Which “complementation condition, C-terminal” value does the source give for B4 here?
Answer: −

Question: For B5, which “complementation condition, C-terminal” value is on record?
Answer: −

Question: How did the “complementation condition, C-terminal” value turn out when B6 was run?
Answer: −

Question: Which “complementation condition, C-terminal” value does the source give for B7 here?
Answer: −

same assay, conditions: N-terminal fragment alone

Question: For B8, which “complementation condition, N-terminal” value is on record?
Answer: −

Question: With B9 as the molecule, how does the “complementation condition, N-terminal” value read?
Answer: −

Question: Which “complementation condition, N-terminal” value does the source give for B10 here?
Answer: −

Question: Which “complementation condition, N-terminal” value does the source give for B11 here?
Answer: −

Question: How did the “complementation condition, N-terminal” value turn out when B12 was run?
Answer: −

Question: B13 was tested. Which “complementation condition, N-terminal” value did it give?
Answer: −

Question: With B14 as the molecule, how does the “complementation condition, N-terminal” value read?
Answer: −

Question: B15 was tested. Which “complementation condition, N-terminal” value did it give?
Answer: −
